Results reported in US11851478.

B1: CHKV-53 (antibody, V domains shown)
VH: QLQLQESGPGLVKPSETLSLTCTVSGGSISSTSHYWGWIRQPPGKGLEWIGNIYYSGSTYYKSSLKSRVAISVDTSKNQFSLKLSSVTAADTAVYFCARVVVGGYYDNRGYYRGPPTPLYYFDYWGQGTLVTVSS
VL: DIQMTQSPSSVSASVGDRVTISCRASPGISTWLAWYQQKPGKAPKLLIYAVSSLQSGVPSRFSGSGSGTDFTLTISSLQPEDFATYYCQQANSLSWTFGQGTKVEIK
B2: CHKV-27 (antibody, V domains shown)
VH: QVQLVQSGAEVKKPGASVKVSCKPSGYNFIDYAMHWVRQAPGQRLEWMGWINAANDNREYSQKFQGRVTLTRDTSATTAYMELSSLTFEDTAVYYCARDRGTMVRGVGGWFDPWGQGTLVTVSS
VL: SYVLTQPPSVSVAPGETARITCGGNNIGSKSVHWYQQKPVQAPVVVVYDDSDRPSGIPERFSGSNSGNTATLTISRVEAGDEADYYCQVWDSSSNHPVFGGGTKVAVL
B3: CHKV-48 (antibody, V domains shown)
VH: QVQLQESGPGLVKPSQTLSLTCAVSGGSISSGGYSWSWIRQPPGKGLEWIGYIYYSGSTYYNPSLKSRLTISMDTSKNHFSLKLSSVTAADTAVYYCATDYCSSTSCNTGAPVNWGQGTLVTVSS
VL: DIQLTQSPSFLSASVGDRVTITCRASQGISSYLAWYQQKPGKAPKLLINAASTLQSGVPSRFSGSGSGTEFTLTISSLQPEDFATYYCQQFNAYPYTFGQGTKLEIK
B4: CHKV-24 (antibody, V domains shown)
VH: QVQLVESGGGVVQPGKSLRLSCAASGFTFRNYGMHWVRQAPGKGLDWVALISYDGTHKYYKDSLKGRFTISRDNFQNTVDLQINSLRPDDTAVYYCAKELATSGVVEPLDSWGQGTLVTVSS
VL: EIVLTQSPGTLSLSPGERATLSCRASQSLVSSYFGWYQQKRGQSPRLLIYAASTRATGIPDRFSGSGSGTDFTLTISRLEPEDFAVYYCQQYGNTPFTFGGGTKVEIK
B5: CHKV-29 (antibody, V domains shown)
VH: EVQLVESGGVVVQPGGSLRLSCAASGFNFDDYTMHWVRQAPGKGLEWVSLITWDGLSTYYADSMKGRFTISRDNSKDSLYLQMDSLRTEDTAFYYCVRDMGPGAVHFYFYGMDVWGQGTLVTVSS
VL: QSALTQPASVSGSPGQSITISCTGTSSDVGNYNLVSWYQQHPGKVPKLIIYEVSKRPSGISKRFSASKSGNTASLTISGLQAEDEADYYCCSYAGSSGVFGAGTKLTVL
B6: CHKV-35 (antibody, V domains shown)
VH: EVQLVESGGGLVPPGGSLRVSCAASGFTLRSYVMAWVRQAPGKGLEWVSGISGDGDHTYYADSVKGRFTISRDNSKNTLYLQMHSLRAEDTALYYCVKDWGIRGIYYPSGMDVWGQGTTVIVSS
VL: SLELAQPPSVSVSPGQTARITCSGDGLPQAYAYWYQKKPGQAPVPLIYKDTERPSGIPERFSGSSSGTTVTLTISGVQAEDEADYYCQSADSIGTNVIFGGGTKLTVL
B7: CHKV-32 (antibody, V domains shown)
VH: QVQLVQSGAEVKKPGASVKVSCKASGYTFTTFAMHWVRQAPGQGLECMGWINTANGYTKYSQKFQGRVTITSDTSASTASMELSSLTSKDTAVYYCARVQDFGHYEGGYGYWGQGTLVTVSS
VL: QSVLTQPPSVSGAPGQRVIISCTGSSSNIGAGYDVHWYQQLPGTAPKLLIYGNSYRPSGVPDRFSGSRSGTSASLAITGLQAEDEADYYCQSHDSSLNDFNVFGSGTKVTVL
B8: CHKV-50 (antibody, V domains shown)
VH: EVQLVESGGGLVQPGRSLRLSCAASGFTFDDYAMHWVRQAPGKGLEWVSGISWNSGFIGYADSVKGRFTISRDNAKNSLYLQMNSLRAEDTALYYCAKDLGRAYSSGWYLFDYWGQGTLVTVSS
VL: SYVLTQPPSVSVAPGKTARITCGGNNIGSKSVHWYQQLPGQAPVLVVYDDSDRPSGIPERFSGSNSGYTATLIISRVEAGDEADYYCQVWDSTSDHACVFGPGTKVTVL
B9: CHKV-31 (antibody, V domains shown)
VH: EVQLVESGGGLVQPGGSLRLSCAASGFTFSNYAMSWVRQAPGKGLEWVSGISGSGRTTYYTDSVKGRFNISRDNTKNTLFLQMNSLRAEDTAVYYCVKDRAGWFGNYFDYWGQGTLVTVSS
VL: DIQMTQSPSSLSASVGDRVTITCRASQGISNYLAWFQQKPGKAPKSLIYAASSLQSGVPSKFSGSRSGTNFTLTISSLQPEDFATYYCQQYNTYPPTFGQGTTVEIK

Target: Chikungunya virus (CHIKV), infectious virus of the focus reduction neutralization test (Chikungunya virus)
Experiment: cell-based or functional assay

Binder | IC50 FRNT* (ng/mL) against CHIKV
B1 | 319 ng/mL
B2 | 17 ng/mL
B3 | 37 ng/mL
B4 | 4 ng/mL
B5 | 86 ng/mL
B6 | 11 ng/mL
B7 | 81 ng/mL
B8 | 2270 ng/mL
B9 | 684 ng/mL
